# Positions count from the first letter of the chain named. Where two headings read alike, the source gives them in different places.
# B1: 1-53 (antibody, V domains shown)
# VH: EVQLLESGGGLVQPGGSLRLSCAASGFTFSSYTMSWVRQAPGKGLEWVSVISGSGGSTYYADSVKGRFTISRDNSKNTLYLQMNSLRAEDTAVYYCAREGYRDYLWYFDLWGQGTLVTVSS
# VL: QSALTQPASVSGSPGQSITISCTGTSTDVGSYNLVSWYQQHPGKAPKLMIYEGTKRPSGVSNRFSGSKSGNTASLTISGLQAEDEADYYCCSYAGSYTSVVFGGGTKLTVL
# B2: 1-32 (antibody, V domains shown)
# VH: EVQLLESGGGLVQPGGSLRLSCAASGFTFSSYAMYWVRQAPGKGLEWVSAISGSGGSTFYADSVKGRFTISRDNSKNTLYLQMNSLRAEDTAVYYCTRPPYGDYGDYWGQGTLVTVSS
# VL: QSALTQPASVSGSPGQSITISCTGTSSDVGGYNLVSWYQQHPGKAPKLMIYEGNKRPSGVSNRFSGSKSGNTASLTISGLQAEDEADYYCCSYAGSSTFPVVFGGGTKLTVL
# B3: 1-33 (antibody, V domains shown)
# VH: B2 VH with Y35I
# VL: B1 VL with T27S, V35L, G53A, T54S, Y97R, S99P
# B4: 1-27 (antibody, V domains shown)
# VH: EVQLLESGGGLVQPGGSLRLSCAASGFTFSSYAMTWVRQAPGKGLEWVSAISGSGGGTYYADSVKGRFTISRDNSKNTLYLQMNSLRAEDTAVYYCASSSSWQFDYWGQGTLVTVSS
# VL: B1 VL with T27S, D28Y, S31H, T54S, K55R, S99H, V100Y
# How the values were obtained:
# SARS-CoV-2 S1 RBD = SARS-CoV-2 S1 RBD (SARS-CoV-2, UniProt P0DTC2 319-541)
# [1] = target: T1, SARS-CoV-2 Spike Glycoprotein S1 (subunit 1) (SARS-CoV-2, UniProt P0DTC2 16-685); test: column Inhibitor IC50 (assay not explained)
# T1 construct: also called S1 Monomer; SARS-CoV-2 S1
# [2] = target: T1, SARS-CoV-2 Spike Glycoprotein S1 …; test: screening phage ELISA, mean
# [3] = target: T1, SARS-CoV-2 Spike Glycoprotein S1 …; test: screening phage ELISA, mean; remark: listed apart in the source
# [4] = target: T1, SARS-CoV-2 Spike Glycoprotein S1 …; test: ELISA binding titration
# [5] = target: T1, SARS-CoV-2 Spike Glycoprotein S1 …; test: column DC/S1 (format not explained)
# [6] = target: T1, SARS-CoV-2 Spike Glycoprotein S1 …; test: column Fc/S1 (format not explained)
# [7] = target: T1, SARS-CoV-2 Spike Glycoprotein S1 …
# [8] = target: T2, SARS-CoV-2 S protein trimer (SARS-CoV-2, UniProt P0DTC2 16-1213); test: column DC/S-T (format not explained)
# [9] = target: T2, SARS-CoV-2 S protein trimer; test: column Fc/S-T (format not explained)
# [10] = target: T1, SARS-CoV-2 Spike Glycoprotein S1 …; test: column DC/S1 (format not explained); clone 1-27
Binder,IC50 (SARS-CoV-2 S1 RBD),IC50 [1],ELISA (Avg) [2],ELISA (Avg) [3],EC50 [4],Kd [5],Kd [6],IC50 [7],Kd [8],Kd [9],Kd [10]
B1,14.3 nM,1430 nM,21.7,21.7,10.2 nM,–,–,–,–,–,–
B2,–,–,17.9,17.9,–,14.8 nM,2980 nM,32.2 nM,–,–,–
B3,–,–,17.6,17.6,17.5 nM,8.1 nM,–,–,1.74 mM,–,–
B4,–,–,27.2,27.2,0.148 nM,–,9.6 nM,–,–,9.6 nM,5.52 µM
